Reference: patent US20050031628A1

Experiments:
[1] = target: antigen binding receptors on maturing human monocyte-derived dendritic cells; assay: flow cytometry, maturing dendritic cells loaded with 10 µg/ml HBV S1/S2
[2] = target: antigen binding receptors on maturing human monocyte-derived dendritic cells; assay: flow cytometry, 90 µg/mL, 1 h at 4 C, dendritic cells of day 4 of culture, F(ab')2 goat anti-mouse Alexa-488
[3] = target: antigen binding receptors on maturing human monocyte-derived dendritic cells; assay: flow cytometry, 90 µg/mL, 1 h at 4 C, dendritic cells of day 1 of culture, F(ab')2 goat anti-mouse Alexa-488
[4] = target: antigen binding receptors on maturing human monocyte-derived dendritic cells; assay: flow cytometry, 90 µg/mL, 1 h at 4 C, dendritic cells of day 3 of culture, F(ab')2 goat anti-mouse Alexa-488
[5] = target: antigen binding receptors on maturing human monocyte-derived dendritic cells; assay: flow cytometry, 90 µg/mL, 1 h at 4 C, dendritic cells of day 2 of culture, F(ab')2 goat anti-mouse Alexa-488

| Substance | % Specific positive cells [1] [%] | Relative MFI [1] | % Specific positive dendritic cells [2] [%] | % Specific positive dendritic cells [3] [%] | % Specific positive dendritic cells [4] [%] | % Specific positive dendritic cells [5] [%] |
| --- | --- | --- | --- | --- | --- | --- |
| HBV S1/S2 expressed in E. coli | 12.2 | 3.9 | – | – | – | – |
| HBV S1/S2 expressed in High Five insect cells (baculovirus) | 69.9 | 40.3 | – | – | – | – |
| murine IgG2a (G155-178) (antibody) | – | – | 13.5 | 28 | 14.3 | 17.4 |
